Assay: yeast display, Sf9 membrane polyspecificity reagent, FACS + sequencing; frameworks hold sequencing errors
In short: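 A synthetic nanobody library was expressed on Saccharomyces cerevisiae BJ5465 by galactose induction for 36–48 hours. The library was stained for 1 hour at 4 °C with 10% biotinylated, detergent-solubilized Sf9 membrane reagent and enriched with streptavidin microbeads before FACS. Low and high (top ~1%) gates were set on anti-HA fluorescence for expression and streptavidin fluorescence for reagent binding, and each polyreactivity label reflects the gate of origin.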

Sequence | polyreactivity (PSR sort gate)
QVQLVESGGGLVQAGGSLRLSCAASGRIFQSYAMGWYRQAPGKERELVAGINSDTSTNYADSVKGRFTISRDNAKNTVYLQMNSLKPEDTAVYYCNAGWDTYYWQSTEFDYWGQGSQVTVSS | low polyreactivity
QVQLVESGGGLVQAGGSLRLSCAASGITFYGYDMGWFRQAPGKERELVASSTYYADSVKGRFTISRDNAKNTVYLQMNSLKPEDTAVYYCITVYYQWVTYGYWGQGTQVTVSS | high polyreactivity
QVQLVESGGGLVQAGGSLRLSCAASGSIFGYYSMGWYRQAPGKERELVATITWGGGSTYADSVKGRFTISRDNAKNTVYLQMNSLKPEDTAVYYCNAGYRYTSAQVTWEYDYWGQGTQVTVSS | low polyreactivity
QVQLEESGGGLVQAGGSLRLSCAASGSIFLGNAMGWYRQAPGKERDLVAAISGGDSTNYADAVKGRFTISRDNAKNTGYLEMNCLKPEDTAVYYCNAVRTLYIWWPGYYYCGQGTQVTVSS | low polyreactivity
QVQLVESGGGLVQAGGSLRLSCAASGSTFYPNAMGWYRQAPGKERELVAAITSGGSTYYADSVKGRFTSSRDNAKNTVYLQMTSLKPEDTAVYYCAAQRRYHQDTTIGPGNYSYWGQGTQVTVSS | low polyreactivity
QVQLQESAAGLVQAGGSLRMSCAASGNIFDADIMGWYRQEPGKERELVASITDGRRTNYADSVKGRYTISRDSEKNTVYLQMNSLKPEDTAVYYCAAIAYPVVPTYFDYDSDYFHWGQGTQVTVSS | high polyreactivity
QVQLVESGGGLVQAGGRLSLSCAASGSTFSPYAMGWYRQAPGKEREFVADISWPGGTTYYADSVKGRFTISRDNAKNTVYLQMNSLKPEDTAVYYCAVTYWDYTFQITYEYWGQGTQVTVSS | low polyreactivity
QDHLVESGGGLVQAGGSLRLSCAASGISFWFNAMGWYRQAPGKEREWVGAITSGVDTNYADSVKGRFTISRDNAKNTVYLQMNSLKPEDTAVNYSAAQGGRLKRGSTTSDYWGQGTQVTVSS | low polyreactivity
QVQLVESGGGLDQAGGSLRLSCAASGRTFGRYAMGWYRQAPGKERELVAAITRSGSSTYYADSVKGRFTISRDNAKNTVYLQMNSLKPEDTAVYYCAAGPRPRPSDYWGQGTQVTVSS | high polyreactivity
QVQLVESGGGLVQAGGSLRLSCAASGFIFAYNAMGWYRQAPGKERELVAAISRSGGSTRYADSVKGRFTISRDNAKNTVYLQMNSLKPEDTAVYYCAARSGSWGQGTQVTVSS | high polyreactivity
QVQLVESGGGLVQAGGSLRLSCAASGITFYKNAMGWYRPAPGKERELVAAISGRGGTTYYADSVKGRFTLSRDNAKNTVYVQMNSLKPEDTAVYYCNTVRWAWPYLKFDYWGQGTQVTVSS | high polyreactivity
QVKLVESGGGLVQAGGSLRLSSAASGSTFEYNAMGWYRQAPGKERELVASSTNYADSVKGRFTISRDNAKNTVYLQMTSRKPEDTAVYYCAREQGVNRNHDYWGQGTQVTVSS | low polyreactivity
QVQLVESVVGLVQAGGSLRLSCAASGFIFVVYAMGWYRQAPGKERELVAAITNGGITYYADSVKGRFTISRDNAKNTVYLQMNSLKPEDTAVYYCNAQYTDYDGYVGYYYWGQGTQVTVSS | low polyreactivity
QVQLVESGGGLVQAGGSLRLSCAASGSTFDSYGMGWYRLAPGKERELVAPSTSRGASTNYADSVKGRFTISRDTAKNTVYLQMTSLKPEDTAVYYCNREVPWWLYKYDGHDYWGQATQVTVSS | low polyreactivity
QVQLVESGGGLVQAGGSLRLSCAASGYIFKSYVMGWYRQAPGKERELVAAISWGGGRTYYADSVKGRFTISRDNAKNTVYLQMNSLKPEDTAVYYCAADTKVGNGIKFDYWGQGTQVTVSS | high polyreactivity
QVQLVESGGGLVQAGGSLRLSCAATGINFRAYAMGWYRQAPGKERELVAAISSGGNTNYADSVKGRFTISRDNAKNTVYLQMNSLKPEDTAVYYCAAGYFWGRIKYYYWGQGTQVTVSS | high polyreactivity
QVQLVESGGGLVQAGGSLRLSCAASGSTFDYYAMGWYRQAPGKERELVAAISSSGSSTYYADSVKGRFTISRDNAKNTVYLQMNSLKPEDTAVYYCNALSNVPYDYWGQGTQVTVSS | low polyreactivity
QVQLVESGGGLVQAGGSLRLSCAASGSTFFDYAMGWYRQAPGKERELVAVISDGGTTTYADSVKGRFTISRDNAKNTVYLQMNSLKPEDTAVYYCAAENQDGLLVILGGYGYWGQGTQVTVSS | low polyreactivity
QVQLVESGGGVVQAGGSLRLSCAASGIIFLYNVMGWYRQAPAKERELVAAISWRGGTYYAHSVKGRFTISRDNAKNSVYLQMNSLKPEDTAVYYCNTYPAASLYGFSYPYRYDSWGQGTQVTVSS | high polyreactivity
QVQLVETGGGLVQAGGSLRLSCAASGSTFYPTYAMGWYRQAPGKERELVATITGSGGSTYYADSVKGRFTISRDNAKNTVYLKMNSLKPEDTAVYYCAADRWYSRYTRYGYWGQGTQVTVSS | low polyreactivity
QVQLVESGGGLVQAGGSLRLSCAASGSIFDNNAMGWYRQAPGKERELVAAISRSGGSTYYADSVKGRFTISRDNAKNTVYLQMNSLKPDDTAVYYCAALPSRPRGYDYWGQGTQVTVSS | high polyreactivity
QDQLVESGGGLVQAGGSLRLSCDASGSIFRYYTMGWYRQAHGQERELVARISYSGGRTYYAVSVKGRFTISRDNAKNTVYLQMNSLKPEDTAVYYCNTVTRWVGKLEYWGHGTQVTVSS | high polyreactivity

Sequence | polyreactivity (PSR sort gate)
QVQLVESVVGLVQAGGSLRLSCAASGRIFYRYAMGWYRQAPGKERELVASITRSGITHYADSVKGRFTISRDNAKNTVYLQMNSLKPEDTAVYYCYARRGSPAPYDYWGQGTQVTVSS | high polyreactivity
QVQLVESGGGLVQAGGSLRLSCAASGRIFYVNAMGWYRQAPGKERELVATIRYSGGSTYYADSVKGRFTISRDNAKNTVYLQMNSLKPEDTAVYYCAARVADYYPGRGYGYWGQGTQVTVSS | high polyreactivity
QVQLVESGGGLVQAGGSLRLSCAASGFTFHHYAMGWYRQAPGKERELVAAITRSGGTTYYADSVKGRFTISRDNAKNTVYLQMNRLKPEDTAVYYCAADTGAKRYYRYDYWGQGTQVTVSS | high polyreactivity
QVQLVESGGGLVQAGGSLRLSCAASGITIDVYGMGWYRQAPGKERELVASIRRRGGSTYYADSVKGRFTISRDNAKNTVYLQMNSLKPEDTAVYYCAAVPSDGHRIWSWDPYPEYDYWGQGTQVTVSS | low polyreactivity
QVQLVESGGGLVQAGGSLRLSCAASGRIFRSYAMGWYRQAPGKERELVAAMTWGGGRTYYADSVKGRFTISRDNAKNTVYLQMNSLKPEDTAVYYCNTLAYPYYRGSKYDYWGQGTQVTVSS | high polyreactivity
QVQLVESGGGLVQAGGSLRLSCAASGSIFTFYAMGWYIQAPGKERELVAAISSGGDTYYADSVKGRFTISRDNAKNTVYLQKNILKPEDTAVYYCAADWRGSYLYGYYYWGQGTQVTVSS | low polyreactivity
QVQLVESGGGLVQAGGSLRVSCAASGSTFRRNNMGWYRQAPGKERELVAGISSSGGSTYYADSVKGRFTISRDNAKNTVYLQMNSLKPEDTAVYYCDARFYVSYVGYNYWGQGTQVTVSS | high polyreactivity
QVQLVESGGGLVQAGRSHRLSCAASGSIFPVYVMGWYRQAPGKERELVAAISQSSGGTYYADSVKGRFTISRDNATITVYLQMNSLKPEDTAVYYCAARITAIQGQRYYWGQGTQVTVSS | high polyreactivity
QVQLVESGGGLVQAGGSLRLSCAASGRTITWYAMGWYRQAPGTERELVAAITRTGRTTYADSVKGRFTISRDNAKNTVYLQMNSLKPEDTAVYYCAARRWGEYDYWGQGTQVTVSS | high polyreactivity
QVQLVESGGGLVQAGGSLRLSCAASGRIFVCYAMGWYRQAPVKERELLAAITCRGGSTYYADSVKGRFTISRDNAKNTVYLQMNSLKPEDTEVYYCAAVGHSGGRRYDYWGQGTQVTVSS | high polyreactivity
QVQLVESGGGLVQAGGSLRLSCAASGFTFRYYAMGWYRQAPGKERELVAAISWSGASTYYADSVKGRFTISRDNAKNTVYLQMNSLKPEDTAVYYCAADIPGTYYYWGQGTQVTVSS | high polyreactivity
QVQLVESGGGLVQAGGSLRLSCAPSGSIFRGYAMGWYRQAPGKERELVAAISSGGSTYYADSVKGRFTISRDNAKNTVDLQMNSLKPEDTAVYYCATSTYAYRRISYYSWGQCTQVTVSS | high polyreactivity
QVQLVESGGGLVQAGGSLRLSCAASGRTFGPYAMGWYRQAPGKERELVAVISKSGTRTYYADSVKGRFTISRDNAKNTVYLQMNSLKPEETAVYYCAARSPYSYRYDYWGQGTQVTVSS | high polyreactivity
QVQLVESWGGLVQAGASLRLSCAASGRILPYYAMGWYRQAPGKERELVATISSGGRTNYADSVKGRFTISRDNAKITVYLQMNSLKPEDTEVYFCNKYGFKGGVGYDYWGQGTQVTVSS | high polyreactivity
QVQLVESGGGLVQAGGSLRLICAASGSTNPRNAMGWYRQAPGKERELDADITSGGSTNYADSVKGRFTISRDNAKNTVYLQMNRLKPEDTAVYYCAADEQVNTQYVVWGDYWGQGTQVTVSS | low polyreactivity
QVQLVESGGGLVQAGGSLRLSCAASGLTFVQYTMGWYRQAPGKERELVAVITSASSTNYADSVKGRFTISRDNAKNTVYLQMNSLKPEDTAVYYCNATTYPYYTNSYQYEYWGQGTQVTVSS | low polyreactivity
QVQLVESGGGLVQAGGSLRLSCAASGRTFSYNAMGWYRQAPGKERELVAAINWRAGRTYYADSVKGRFTISRDNAKNTVYLQMNSLKPEDTAVYYCNARSGRGQAYGYWGQGTQVTVSS | high polyreactivity
QVQLVESGGGLVQAGGSLRLTCAASGLTFSFYAMGWYRQAPGKEWELVAALSKGGGSTSYADSVKGRFTISRDNAKNTFYLQRNSLKPGDTAVYSCAAKDYKAPNKRLYDYWGQGTQVTVSS | high polyreactivity
QVQLVESGGCLVQAGGSLRLSCAASGFIFGSNVMGWYRQAPGKERELVAAISYSGASTYYADSVKGRFTISRDNAKNTVYLQMNSLKPEDTAVYYCNAESYYFYWPVYSYDYWGQGTQVTVSS | low polyreactivity
QVQLVESGRGLVQAGGSLRLSCAASGRIFGVYAMGWDRQAPGKERELVAAISGSTTRTYYADSVKGRFTISRDTAKNTVYLQMNSLKPEDTAVYYCAARSYTPSYKMDYWGQGTQVTVSS | high polyreactivity
QFQLVESGGGLVQAGGSLRLSCAASGIIFHIYAMGWYRQAPGKERELVAAISTGSSTYYADSVKGRFTISRDNAKNTVYLQMNSLKPEDTSVSYCNAVSRYLWVKGFDYWGQGTQVTVSS | low polyreactivity

From the nanobody polyreactivity screen of Harvey et al. (2022)
